{"source": "patent US20240076386A1", "about": "(Pfizer, published 2024)", "binders": {"B1": {"name": "anti-E-selectin antibody 0039 chimera (antibody, human IgG1, kappa, V domains shown)", "VH": "QVQLKETGPGLVQPTQTLSITCTVSGFSLTGYYMQWVRQTPGKGLEWMGFIRSSGSTEYNSEFKSRLSISRDTSKNQVFLKMNSLKTEDTGVYYCARCPYKYSSFVYVGVMDAWGQGAPVTVSS", "VL": "EIVMTQSPTSMSTSIGERVTLNCKASQTVGINVDWYQQTPGQPPKLLIYGASNRHTGVPDRFTGSGFGRDFTLTISNVEAEDLAVYCCLQYGSIPHTFGPGTKLELKR", "notes": "rat VH/VL on effector-null human IgG1 and human kappa"}, "B2": {"name": "anti-E-selectin antibody 0159 chimera (antibody, human IgG1, kappa, V domains shown)", "VH": "EVQLQQSGAELGKPGTSVKLSCKVSGYNIRSTYMHWVSQRPGKGLEWIGRIDPANGNTIYAEKFKRKATLTADTSSNTAYMQLSQLKSDDRAIYFCAMEVRVSFEYWGQGVMVTVSS", "VL": "DIQMTQSPSFLSASVGDRVTINCKASQNINKYLDWYQQKLGEGPKLLIYYTNNLHTGIPSRFSGSGSGTDFTLTISSLQPEDVATYFCLQHDSGYTFGAGTKLELKR", "notes": "as for B1"}, "B3": {"name": "anti-E-selectin antibody 0170 chimera (antibody, human IgG1, kappa, V domains shown)", "VH": "EVQLQQSGAELGKPGTSVKLSCKVSGYSIRSTYMHWVNQRPGKGLEWVGRIDPANGNTIYAERFKNKATLTADTSSNTAYMQLSQLKSDDTAIYFCAVEILGIFDYWGQGVMVTVSS", "VL": "B2 VL with N30D, G43A, I48M, Y50N, N53S, D92N", "notes": "as for B1"}, "B4": {"name": "anti-E-selectin antibody 0180 chimera (antibody, human IgG1, kappa, V domains shown)", "VH": "EVQLQQSGAELGKPGTSVKLSCKVSGYKIRSSYMHWVNQRPGKGLEWIGRIDPANGNTIYGDKFKSKATLTSDTSSNTAYIQLSQLKSDDTAIYFCAIDIGTTFDYWGQGVMVTVSS", "VL": "DIQMTQSPSFLSASVGDRVTINCKASQHINRYLNWYQQKLGEAPKLLIYDANNLQTGIPSRFSGSGSGTDFTLTISSLQPEDVATYFCLQHNSWPNTFGAGTKLELKR", "notes": "as for B1"}, "B5": {"name": "anti-E-selectin antibody 0164 chimera (antibody, human IgG1, kappa, V domains shown)", "VH": "EVQLQQSGAEFGKPGTSVKLSCKVSGYNIRSSYMHWVNQRPGKGLEWIGRIDPANGNTIYAEKFKIKAILTADSSSNTAYMQLSQLKSDDTAIYFCAMDLYSTSEYWGQGVMVTVSS", "VL": "B4 VL with A25T, H28N, D50N, N53S, G64A, S76N, H91D, N96L, A100S, L106I", "notes": "as for B1"}, "B6": {"name": "humanized anti-E-selectin antibody 0841 (antibody, human IgG1, kappa, V domains shown)", "VH": "EVQLVESGGGLVQPGGSLRLSCAASGYNIRSSYMHWVRQAPGKGLEWVARIDPANGNTIYAEKFKIRFTISADNAKNSAYLQMNSLRAEDTAVYYCAMDLYSTSEYWGQGTLVTVSS", "VL": "DIQMTQSPSSLSASVGDRVTITCKTSQNINRYLNWYQQKPGKAPKLLIYNANSLQTGVPSRFSGSGSGTDFTLTISSLQPEDFATYFCLQDNSWPLTFGQGTKVEIKR", "notes": "effector-null human IgG1, kappa"}, "B7": {"name": "optimized anti-E-selectin antibody 1284 (antibody, human IgG1, kappa, V domains shown)", "VH": "B6 VH with N28A, S32A, A61V, K63S, F64V, K65E, I66G", "VL": "B6 VL with N30E, N50A, N52S, T56S, S93A", "notes": "as for B6"}, "B8": {"name": "optimized anti-E-selectin antibody 1444 (antibody, human IgG1, kappa, V domains shown)", "VH": "B6 VH with N28A, S32A, A61V, E62D, K63S, F64V, K65T, I66G", "VL": "B6 VL with N30E, N50A, N52S, T56S, S93A", "notes": "as for B6"}}, "note": "Numbering of substitutions follows the chain as printed."}
{"target": "T1, cynomolgus monkey E-selectin extracellular domain with 10 His purification tail (cynomolgus monkey, UniProt P16581 22-554 (human entry))", "T1 construct": "also called cynomolgus E-selectin; truncated cynomolgus monkey E-selectin", "T1 chain": "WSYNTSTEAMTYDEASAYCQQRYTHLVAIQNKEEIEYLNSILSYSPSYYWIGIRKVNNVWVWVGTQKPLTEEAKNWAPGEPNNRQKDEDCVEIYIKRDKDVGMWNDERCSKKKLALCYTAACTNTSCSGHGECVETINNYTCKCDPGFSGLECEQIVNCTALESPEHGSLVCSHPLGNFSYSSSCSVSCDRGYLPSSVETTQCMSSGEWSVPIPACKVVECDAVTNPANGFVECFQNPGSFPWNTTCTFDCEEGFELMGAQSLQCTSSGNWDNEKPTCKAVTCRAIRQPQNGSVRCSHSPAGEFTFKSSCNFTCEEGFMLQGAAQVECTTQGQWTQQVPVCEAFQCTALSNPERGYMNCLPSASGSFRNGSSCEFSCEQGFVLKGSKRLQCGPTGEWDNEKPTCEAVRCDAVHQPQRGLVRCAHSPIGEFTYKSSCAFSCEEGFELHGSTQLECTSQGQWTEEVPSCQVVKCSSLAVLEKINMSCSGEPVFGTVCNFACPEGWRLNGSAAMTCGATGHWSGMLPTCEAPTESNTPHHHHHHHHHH", "experiment": "SPR, antibody captured, E-selectin analyte", "protocol": "To characterize binding of antibodies to human, cynomolgus monkey, and mouse E-selectin, an antibody was diluted to 0.5 μg/mL in HBS-EP+ and captured by the anti-human IgG immobilized on flow cells 2, 3 and 4 for 30 seconds to 1 minute at a flow rate of 10 μL/minute to achieve a capture level of 70 to 300 RU. Flow cell 1 was used as a reference surface. […] HBS-EP+ buffer cycles collected for each captured antibody were used for double-referencing (Myszka D G. J. Mol. Recognition 1999; 12(5):279-84). At the end of each cycle, the entire anti-IgG surface was regenerated by a 30 second pulse of 3 M MgCl₂ and a 30 second pulse of ionic buffer (1.83 M MgCl₂, 0.92 M Urea, 1.83 M Guanidine HCl, pH 7.4) (Andersson K. Analy. Chem. 1999; 71(13): 2475-81). Kinetic assays were conducted at 25° C. at a collection rate of 10 Hertz (Hz) on a BIAcore™ T200 instrument (GE Healthcare). Rate constants and affinities were determined by fitting the data to a 1:1 binding model in BIAcore™ T200 Evaluation software version 3.0 (GE Healthcare).", "units": {"Kd": "nM", "koff": "s⁻¹", "kon": "M⁻¹ s⁻¹", "t½": "s"}}
{"binder": "B1", "Kd": 45.8, "koff": 0.00377, "kon": 82400, "t½": 184}
{"binder": "B2", "Kd": 244, "koff": 0.0374, "kon": 154000, "t½": 18.5}
{"binder": "B3", "Kd": 492, "koff": 0.0564, "kon": 115000, "t½": 12.3}
{"binder": "B4", "Kd": 3140, "koff": 0.749, "kon": 245000, "t½": 0.93}
{"binder": "B5", "Kd": 45.4, "koff": 0.012, "kon": 265000, "t½": 57.8}
{"target": "T2, recombinant histidine-tagged human E-selectin (Sino Biologicals; 13025-H08H) (human, UniProt P16581 22-556)", "T2 construct": "also called recombinant human E-selectin; soluble recombinant human E-selectin", "T2 sequence (looked up)": "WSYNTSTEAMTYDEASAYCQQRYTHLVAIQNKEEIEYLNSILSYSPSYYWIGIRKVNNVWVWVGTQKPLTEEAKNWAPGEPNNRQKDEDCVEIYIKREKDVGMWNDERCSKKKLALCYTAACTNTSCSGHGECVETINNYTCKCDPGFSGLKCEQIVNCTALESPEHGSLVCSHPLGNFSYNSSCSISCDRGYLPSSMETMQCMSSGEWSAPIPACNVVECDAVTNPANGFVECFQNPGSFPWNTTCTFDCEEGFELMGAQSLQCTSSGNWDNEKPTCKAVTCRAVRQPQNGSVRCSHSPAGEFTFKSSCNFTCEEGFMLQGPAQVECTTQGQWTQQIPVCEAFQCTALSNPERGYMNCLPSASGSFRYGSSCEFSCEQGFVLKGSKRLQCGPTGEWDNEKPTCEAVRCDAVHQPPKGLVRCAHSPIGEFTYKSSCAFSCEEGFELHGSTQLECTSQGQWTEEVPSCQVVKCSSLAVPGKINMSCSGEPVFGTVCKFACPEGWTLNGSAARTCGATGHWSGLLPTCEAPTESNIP", "experiment": "direct binding ELISA, His-tagged selectin on plate", "protocol": "(§1) Recombinant histidine tagged human P-, E- or L-selectin (Sino Biologicals), mouse E-selectin (Sino Biologicals), rat E-selectin (Sino Biologicals) and Cynomolgus monkey E-selectin (Sino Biologicals) stock solutions were prepared to a final concentration of 1 μg/mL in phosphate buffered saline without calcium and magnesium. Controls included an L-selectin directed antibody (BioLegend; 304811) or P-selectin directed antibody or a negative control IgG. One hundred μL per well of the diluted recombinant selectin proteins were added into a Ni-NTA HisSorb 96 well plate (Qiagen; 35061). Plates were incubated on an orbital shaker at room temperature for 2 hours. Following the incubation, the plates were washed 3 times with 200 μL of wash buffer (50 mM TRIS [trisaminomethane]; 150 mM sodium chloride; 0.05% polysorbate 20, pH 7.4). To decrease nonspecific binding, plates were treated with 200 μL of blocking buffer (BD Opteia buffer; 555213; BD Biosciences), incubated on an orbital shaker for 1 hour at room temperature and washed as described above. […] One hundred μL specific detection antibodies (described below) were added and incubated for 1 hour: [0556] […] Anti L-selectin and anti-rat-E-selectin antibodies were detected using 1 to 25000 dilution of Peroxidase-conjugated AffiniPure Goat Anti-Mouse IgG (H+L); (Jackson ImnnunoResearch Lab).\n(§2) Plates were washed and 100 μL per well of 1-Step Ultra TMB substrate (Thermo Scientific) was added and incubated for 5 minutes at room temperature. Reactions were stopped with 100 μL of 2 M sulfuric acid and absorbance read at 450 nm (Spectramax M5e).", "units": {"EC50": "nM"}}
{"binder": "B6", "EC50": 0.17}
{"binder": "B7", "EC50": 0.1}
{"binder": "B8", "EC50": 0.12}
{"target": "T3, recombinant histidine-tagged cynomolgus monkey E-selectin (Sino Biologicals; 190169-C08H) (cynomolgus monkey, UniProt A0A2K5U7H9 22-554)", "T3 construct": "also called recombinant cynomolgus monkey E-selectin", "T3 sequence": "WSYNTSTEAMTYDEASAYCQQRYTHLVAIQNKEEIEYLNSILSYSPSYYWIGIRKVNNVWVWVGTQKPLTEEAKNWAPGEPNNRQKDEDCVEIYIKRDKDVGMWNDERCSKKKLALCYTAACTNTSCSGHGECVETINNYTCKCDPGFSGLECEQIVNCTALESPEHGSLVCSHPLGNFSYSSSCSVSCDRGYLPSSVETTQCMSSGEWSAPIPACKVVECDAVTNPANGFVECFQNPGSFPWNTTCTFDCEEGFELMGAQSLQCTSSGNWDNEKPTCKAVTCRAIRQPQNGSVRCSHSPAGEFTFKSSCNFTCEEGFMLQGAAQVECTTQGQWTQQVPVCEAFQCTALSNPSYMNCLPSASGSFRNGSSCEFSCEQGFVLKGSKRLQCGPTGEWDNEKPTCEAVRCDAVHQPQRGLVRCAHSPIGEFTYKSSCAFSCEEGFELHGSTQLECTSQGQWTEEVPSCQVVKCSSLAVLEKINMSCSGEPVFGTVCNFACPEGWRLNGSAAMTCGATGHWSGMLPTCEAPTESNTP", "experiment": "direct binding ELISA, His-tagged selectin on plate", "protocol": "as §1, §2", "units": {"EC50": "nM"}}
{"binder": "B6", "EC50": 0.081}
{"binder": "B7", "EC50": 0.082}
{"binder": "B8", "EC50": 0.093}
